Paper PMC12418378, “Intrinsically disordered region of Clr4/Suv39 regulates its enzymatic activity and ensures heterochromatin spreading” (Nucleic Acids Research, 2025)

How the values were obtained:
Experiment in all cases: pull-down; GST-fused Clr4 (0.2 nmol) on Glutathione Magnetic Agarose Beads, 0.2 nmol MBP-fused Clr4 in 200 μl of 10 mM Tris-HCl pH 7.5, 150 mM NaCl, 0.1 mM EDTA, 0.1% Triton X-100, 4°C, 2 h; SDS-PAGE and CBB staining; also at 0 mM NaCl and with pericentromeric RNA added
Conditions in all cases: both partners purified
[1] = target: T1, MBP-fused catalytic domain of Clr4 (MBP-Clr4-C, amino acids 192-490) (S. pombe, UniProt O60016 192-490)
T1 construct: Clr4, S. pombe, C-terminal catalytic domain, amino acids 192-490; cloned into pMALc2; source: E. coli BL21 (DE3), purified (Amylose Resin, dialysed)

MBP-Clr4-C 472–475E = target: T2, MBP-Clr4-C 472–475E (S. pombe, UniProt O60016 192-490, 472–475E)
T2 construct: source: E. coli BL21 (DE3), purified (Amylose Resin, dialysed)

MBP-Clr4-C 472–475A = target: T3, MBP-Clr4-C 472–475A (S. pombe, UniProt O60016 192-490, 472–475A)
T3 construct: source: E. coli BL21 (DE3), purified (Amylose Resin, dialysed)
T3 sequence (O60016 other isoform, or with tags, fused parts or gaps 472–475A | 472–475A): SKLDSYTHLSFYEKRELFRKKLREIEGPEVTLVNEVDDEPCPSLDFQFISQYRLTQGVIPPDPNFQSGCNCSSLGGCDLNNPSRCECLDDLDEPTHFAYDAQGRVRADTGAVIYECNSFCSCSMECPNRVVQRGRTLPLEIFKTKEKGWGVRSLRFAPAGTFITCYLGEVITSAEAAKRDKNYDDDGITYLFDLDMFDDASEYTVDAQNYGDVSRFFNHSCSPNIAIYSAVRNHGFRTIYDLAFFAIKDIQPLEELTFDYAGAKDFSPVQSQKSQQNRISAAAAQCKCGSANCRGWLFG

T1 sequence (O60016 192-490): as the sequence (O60016 other isoform, or with tags, fused parts or gaps 472–475A | 472–475A) above, with A281K, A282L, A283R, A284R counted along it
T2 sequence (O60016 other isoform, or with tags, fused parts or gaps 472–475E | 472–475E): as the sequence (O60016 other isoform, or with tags, fused parts or gaps 472–475A | 472–475A) above, with A281E, A282E, A283E, A284E counted along it

binding result [1]	binding result (MBP-Clr4-C 472–475E)	binding result (MBP-Clr4-C 472–475A)	Binder
binds			GST-Clr4-N3 (domain or fragment, S. pombe, UniProt O60016 1-126, looked up, Clr4, S. pombe, residues 1-126; source: E. coli BL21 (DE3), purified (Glutathione Sepharose 4B, anion exchange SOURCE 15Q)) MSPKQEEYEVERIVDEKLDRNGAVKLYRIRWLNYSSRSDTWEPPENLSGCSAVLAEWKRRKRRLKGSNSDSDSPHHASNPHPNSRQKHQHQTSKSVPRSQRFSRELNVKKENKKVFSSQTTKRQSR
binds	binds	binds	GST-fused Clr4 N-terminus (GST-Clr4-N, amino acids 1-191) (domain or fragment, S. pombe, UniProt O60016 1-191, looked up, Clr4, S. pombe, N-terminus comprising the CD and IDR, amino acids 1-191; cloned into pGEX6P-3; also called wild-type GST-Clr4-N; GST-Clr4-N2 (label worked out); source: E. coli BL21 (DE3), purified (Glutathione Sepharose 4B, anion exchange SOURCE 15Q)) MSPKQEEYEVERIVDEKLDRNGAVKLYRIRWLNYSSRSDTWEPPENLSGCSAVLAEWKRRKRRLKGSNSDSDSPHHASNPHPNSRQKHQHQTSKSVPRSQRFSRELNVKKENKKVFSSQTTKRQSRKQSTALTTNDTSIILDDSLHTNSKKLGKTRNEVKEESQKRELVSNSIKEATSPKTSSILTKPRNP
